Reference: publication PMC11487604, “Selective, Intrinsically Fluorescent Trk Modulating Probes” (ACS Chemical Neuroscience, 2024)
*1 amine or outer side, *2 acyl side, *3 side chain or, on linkers, in order; H or OH if unused. Where a SMILES comes first, the peptide text is derived from it. Bridges are numbered along the chain shown (N, C = ends). Where no end group is shown, it is not given here. sulfonated dichloro‑BODIPY dye = Sulfonated dichloro-BODIPY dye that cyclises the two flanking Cys through two SNAr reactions; sulfonated dichloro‑BODIPY = sulfonated dichloro-BODIPY dye attached to the two flanking Cys by SNAr reactions; X1 = COc1ccc(C2=C3C=C(S(=O)(=O)O)C([*:2])=[N+]3[B-](F)(F)n3c2cc(S(=O)(=O)O)c3[*:1])cc1

Legend:
p75 = settings: cited from earlier work
TrkC = settings: cited from earlier work
[1] = test system: primary adult cortical neurons; assay: Primary adult cortical neuron assay (neurite outgrowth and survival); format: cell-based, mouse; settings: data not shown
Source text: We next decided to test the effects of 5c(ii) on primary mouse adult cortical neurons. These neurons naturally express TrkA[84] and therefore provide a more clinically relevant substrate to test compound leads in than analogous Trk-expressing transfectants. In addition, using neurons extracted from adult mice provide increased relevance to neurodegenerative and other nervous-system related diseases and injury, since most of these primarily occur in adult populations.[85],[86] To determine any potential for preclinical applications, 5c(ii) (5 μM) was incubated with primary cortical neurons from 6-week-old male mice at the time of plating, and neuronal survival and neurite outgrowth were quantified.
Figure 7 5c(ii) promotes neuroprotection. Primary adult cortical neurons were extracted from 6-week-old male mice and plated on 384-well PDL-coated plastic bottom plates at 10,000 cells/well. 5c(ii) at 5 μM concentration was added at the time of plating. 48 h after plating, the cells were fixed to conduct immunocytochemistry. Graph represents the mean ± SEM of (a) total neurite outgrowth per cell and (b) number of valid neurons per well. Representative images of cortical neurons treated with (c) vehicle and (d) 5 μM 5c(ii). Student’s t test. N = 3–5. *p < 0.05.
Cortical neuron assay was conducted as previously described.[85] Briefly, wild-type 6-week-old C57Bl/6 male mice were euthanized using CO2, and the brains were removed. The cortex was isolated and transferred to a MACS C-tube and then dissociated using the Miltenyi gentleMACS octo-dissociator on a preset protocol designed for adult rodent brains. […] Images were quantified using the Neurite Outgrowth Analysis Module in MetaXpress 6 software (Molecular Devices). For quantification, the number of valid neurons is determined by quantifying the number of TUBB3^+/DAPI^+ cells in a well with ≥10 μm of total neurite outgrowth. Total neurite outgrowth is determined by dividing the length of all neurites in a well by the number of valid neurons in that respective well. […]

[2] = molecular target: TrkC-expressing cells (NIH+C) (UniProt Q16288); assay: Cell survival assay in serum-free media, TrkC-expressing cells (NIH+C); format: cell-based; settings: Figure 8 summary
Sequence of TrkC-expressing cells (NIH+C) (Q16288 32-839): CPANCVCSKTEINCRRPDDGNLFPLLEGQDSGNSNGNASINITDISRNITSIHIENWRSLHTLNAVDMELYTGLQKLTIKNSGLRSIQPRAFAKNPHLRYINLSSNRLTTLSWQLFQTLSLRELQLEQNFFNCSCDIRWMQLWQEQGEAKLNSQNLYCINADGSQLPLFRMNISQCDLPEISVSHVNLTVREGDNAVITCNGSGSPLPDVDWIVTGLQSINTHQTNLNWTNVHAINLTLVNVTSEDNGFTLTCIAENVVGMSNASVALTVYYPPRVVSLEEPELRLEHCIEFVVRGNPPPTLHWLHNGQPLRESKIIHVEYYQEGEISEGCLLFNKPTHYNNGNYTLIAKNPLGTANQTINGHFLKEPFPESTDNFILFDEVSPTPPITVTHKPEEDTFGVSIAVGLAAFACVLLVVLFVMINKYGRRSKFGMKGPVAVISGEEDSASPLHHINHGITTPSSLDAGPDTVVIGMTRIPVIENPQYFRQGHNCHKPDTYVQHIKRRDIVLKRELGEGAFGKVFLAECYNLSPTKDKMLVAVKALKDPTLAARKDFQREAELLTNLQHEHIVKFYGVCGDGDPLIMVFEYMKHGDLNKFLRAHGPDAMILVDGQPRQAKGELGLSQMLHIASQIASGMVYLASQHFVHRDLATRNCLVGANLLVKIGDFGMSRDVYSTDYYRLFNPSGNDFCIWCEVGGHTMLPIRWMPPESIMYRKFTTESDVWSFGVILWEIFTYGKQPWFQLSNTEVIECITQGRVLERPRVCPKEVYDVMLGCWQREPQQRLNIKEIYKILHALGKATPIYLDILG
Protocol: Loop mimics 5 were screened in cell survival assays to evaluate their efficacy in stimulating Trk receptors (Figure 2). Mimics were assayed for the ability to rescue cells from cell death when incubated in serum-free media (SFM) in the absence of NTs (a test for “agonism”) or in the presence of a suboptimal NT concentration (a test for NT “modulation”). Simultaneously, these assays may confirm test mimics are not cytotoxic at lower doses (though cytotoxicity assays were also performed up to higher doses, Figure S1). […] All the test compounds were screened at 50 μM concentrations initially, and then, dose response curves were measured for the hits (Table 1 and Figure 3). […]
Cells were seeded at a density of 2 × 10^3 cells/well in complete media in 96-well plates and incubated for 24 h to allow cells to adhere. […] Cells were suspended and live cells counted using flow cytometry (CytoFLEX LX). Cell survival was normalized from cell count (CC) readings relative to optimal neurotrophin (NT = 100%) and DMSO (0%) utilizing GraphPad Prism 10.2, followed by statistical analysis via one-way ANOVA and Dunnett’s t test compared to the DMSO control. Dose response versions of this assay were conducted following the same procedure, but the data was analyzed in GraphPad Prism 10.2 using the nonlinear fit: {agonist} vs response – variable slope (four parameters) function.

[3] = molecular target: TrkB-expressing cells (HEK+B) (UniProt Q16620); assay: Cell survival assay in serum-free media, TrkB-expressing cells (HEK+B); format: cell-based; settings: Figure 8 summary
Sequence of TrkB-expressing cells (HEK+B) (Q16620 32-822): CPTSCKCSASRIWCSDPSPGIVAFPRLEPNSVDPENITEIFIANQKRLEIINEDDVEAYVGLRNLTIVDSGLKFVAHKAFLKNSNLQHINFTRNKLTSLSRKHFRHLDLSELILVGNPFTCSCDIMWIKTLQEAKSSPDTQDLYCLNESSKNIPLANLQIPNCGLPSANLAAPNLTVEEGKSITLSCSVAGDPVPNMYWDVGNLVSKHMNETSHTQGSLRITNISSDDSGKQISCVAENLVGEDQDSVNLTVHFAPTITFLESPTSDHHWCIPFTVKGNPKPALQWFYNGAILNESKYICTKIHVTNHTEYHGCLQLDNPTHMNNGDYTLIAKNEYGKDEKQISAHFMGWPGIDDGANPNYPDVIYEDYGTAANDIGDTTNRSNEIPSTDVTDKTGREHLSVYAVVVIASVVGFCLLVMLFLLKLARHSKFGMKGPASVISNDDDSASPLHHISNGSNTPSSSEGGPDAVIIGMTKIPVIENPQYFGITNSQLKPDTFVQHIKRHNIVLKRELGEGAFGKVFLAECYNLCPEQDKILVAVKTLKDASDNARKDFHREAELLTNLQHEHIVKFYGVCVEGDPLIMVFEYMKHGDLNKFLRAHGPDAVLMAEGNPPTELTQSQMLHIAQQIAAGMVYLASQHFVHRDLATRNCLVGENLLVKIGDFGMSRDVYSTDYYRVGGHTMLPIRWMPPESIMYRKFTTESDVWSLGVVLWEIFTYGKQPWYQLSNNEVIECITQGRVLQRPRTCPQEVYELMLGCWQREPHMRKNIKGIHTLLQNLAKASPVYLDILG
Protocol: Loop mimics 5 were screened in cell survival assays to evaluate their efficacy in stimulating Trk receptors (Figure 2). Mimics were assayed for the ability to rescue cells from cell death when incubated in serum-free media (SFM) in the absence of NTs (a test for “agonism”) or in the presence of a suboptimal NT concentration (a test for NT “modulation”). Simultaneously, these assays may confirm test mimics are not cytotoxic at lower doses (though cytotoxicity assays were also performed up to higher doses, Figure S1). […] All the test compounds were screened at 50 μM concentrations initially, and then, dose response curves were measured for the hits (Table 1 and Figure 3).
We were forced to use transfectants in different cell lines (HeLa, HEK-293, NIH-3T3 expressing TrkA, B, and C, respectively) due to difficulties in obtaining transfected cells derived from a single wild type; however, none of the cells used express TrkA-C prior to transfection. Throughout this paper, HeLa cells are denoted as “HeLa”, and their TrkA transfectants are “HeLa+A”. Similarly, HEK-293 cells are “HEK”; their TrkB transfectants are HEK+B. NIH-3T3 cells are “NIH”, and their TrkC transfectants are “NIH+C”.
Cells were seeded at a density of 2 × 10^3 cells/well in complete media in 96-well plates and incubated for 24 h to allow cells to adhere. Cells were washed with DPBS, and then, media were swapped for serum-free media of the same type as the complete media. Cells were then treated with 50 μM compound either alone or in conjunction with suboptimal neurotrophin corresponding to the Trk receptor expressed for 48 h. Cells were washed with DPBS buffer twice and detached from the plate with 50 μL of trypsin for 3 min at 37 °C. Trypsinization was quenched with 100 μL of complete media. Cells were suspended and live cells counted using flow cytometry (CytoFLEX LX). Cell survival was normalized from cell count (CC) readings relative to optimal neurotrophin (NT = 100%) and DMSO (0%) utilizing GraphPad Prism 10.2, followed by statistical analysis via one-way ANOVA and Dunnett’s t test compared to the DMSO control. Dose response versions of this assay were conducted following the same procedure, but the data was analyzed in GraphPad Prism 10.2 using the nonlinear fit: {agonist} vs response – variable slope (four parameters) function.

[4] = molecular target: TrkA-expressing cells (HeLa+A) (UniProt P04629); assay: Cell survival assay in serum-free media, TrkA-expressing cells (HeLa+A); format: cell-based; settings: Figure 8 summary
Sequence of TrkA-expressing cells (HeLa+A) (P04629 33-796): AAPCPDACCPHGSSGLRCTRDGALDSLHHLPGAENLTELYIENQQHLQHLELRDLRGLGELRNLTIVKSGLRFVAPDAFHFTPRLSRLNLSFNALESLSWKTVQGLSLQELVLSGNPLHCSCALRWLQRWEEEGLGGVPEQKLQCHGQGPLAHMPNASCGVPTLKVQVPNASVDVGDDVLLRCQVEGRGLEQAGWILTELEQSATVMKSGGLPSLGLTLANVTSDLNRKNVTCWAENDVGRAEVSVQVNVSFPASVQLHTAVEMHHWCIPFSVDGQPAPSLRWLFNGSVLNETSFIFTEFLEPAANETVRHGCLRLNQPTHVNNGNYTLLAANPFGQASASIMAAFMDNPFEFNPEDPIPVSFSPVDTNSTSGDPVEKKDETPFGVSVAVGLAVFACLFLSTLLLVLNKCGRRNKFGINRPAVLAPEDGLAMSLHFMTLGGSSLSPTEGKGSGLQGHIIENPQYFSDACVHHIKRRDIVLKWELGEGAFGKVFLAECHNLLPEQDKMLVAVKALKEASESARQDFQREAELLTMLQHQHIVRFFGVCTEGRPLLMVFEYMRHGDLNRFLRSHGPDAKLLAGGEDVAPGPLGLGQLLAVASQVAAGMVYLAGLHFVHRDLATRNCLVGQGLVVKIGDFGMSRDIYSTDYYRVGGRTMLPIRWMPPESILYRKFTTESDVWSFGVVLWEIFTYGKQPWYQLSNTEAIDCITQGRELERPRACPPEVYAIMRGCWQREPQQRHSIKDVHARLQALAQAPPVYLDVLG
Protocol: Cells were seeded at a density of 2 × 10^3 cells/well in complete media in 96-well plates and incubated for 24 h to allow cells to adhere. Cells were washed with DPBS, and then, media were swapped for serum-free media of the same type as the complete media. […] Cells were suspended and live cells counted using flow cytometry (CytoFLEX LX).

[5] = molecular target: T1, TrkC (on NIH3T3-TrkC transfectants) (UniProt Q16288 32-839); assay: cell-surface fluorescence binding on live cells (plate reader); serial dilution of the intrinsically fluorescent compound in serum-free media on adherent Trk-transfected cells, 2.5 h, washed with DPBS, dissolved in 1% SDS, ex 540/25 nm, em 620/40 nm; fluorescence of the Trk-negative parent cells subtracted; one site - specific binding fit; settings: one partner purified
T1 construct: TrkC receptor expressed on transfected NIH-3T3 cells; also called NIH+C; NIH-TrkC; source: NIH-3T3, transfected (NIH3T3-TrkC), on live cells
T1 sequence (Q16288 32-839): as the sequence (Q16288 32-839) above

[6] = molecular target: T2, TrkB (on HEK293-TrkB transfectants) (UniProt Q16620 32-822); assay: as above; settings: one partner purified
T2 construct: TrkB receptor expressed on transfected HEK-293 cells; also called HEK+B; HEK-TrkB; source: HEK-293, transfected (HEK293-TrkB), on live cells
T2 sequence (Q16620 32-822): as the sequence (Q16620 32-822) above

[7] = molecular target: T2, TrkB (on HEK293-TrkB transfectants); assay: cell-based or functional assay
[8] = molecular target: T1, TrkC (on NIH3T3-TrkC transfectants); assay: cell-based or functional assay
[9] = molecular target: T3, TrkA (on HeLa-TrkA transfectants) (UniProt P04629 33-796); assay: cell-based or functional assay
T3 sequence (P04629 33-796): as the sequence (P04629 33-796) above

[10] = molecular target: T3, TrkA (on HeLa-TrkA transfectants); assay: cell-surface fluorescence binding on live cells (plate reader); serial dilution of the intrinsically fluorescent compound in serum-free media on adherent Trk-transfected cells, 2.5 h, washed with DPBS, dissolved in 1% SDS, ex 540/25 nm, em 620/40 nm; fluorescence of the Trk-negative parent cells subtracted; one site - specific binding fit; settings: one partner purified
[11] = molecular target: T3, TrkA (on HeLa-TrkA transfectants); assay: cell-based or functional assay; remark: listed apart in the source
[12] = molecular target: T1, TrkC (on NIH3T3-TrkC transfectants); assay: cell-based or functional assay; remark: listed apart in the source

NCCCC[C@@H]1NC(=O)[C@H](CCC(=O)O)NC(=O)c2cc([N+](=O)[O-])ccc2OCC[C@@H](C(=O)NCC(=O)O)NC1=O [D3]
binding to p75 (p75): does not bind | binding to TrkC (TrkC): does not bind | effect in primary adult cortical neuron assay [1]: no measurable effect

COc1ccc(C2=C3C=C(S(=O)(=O)O)C4=[N+]3[B-](F)(F)n3c2cc(S(=O)(=O)O)c3SC[C@H](NC(C)=O)C(=O)N[C@@H](CCC(=O)O)C(=O)N[C@@H](CC(N)=O)C(=O)N[C@@H](CC(N)=O)C(=O)N[C@@H](CCCCN)C(=O)N[C@H](C(N)=O)CS4)cc1 [5c(iii)] (Ac-CENNKC-NH2; linker 1-6 via X1; N-terminus and C-terminus assumed)
result (Trk activity assigned) [2]: TrkC agonist

COc1ccc(C2=C3C=C(S(=O)(=O)O)C4=[N+]3[B-](F)(F)n3c2cc(S(=O)(=O)O)c3SC[C@H](NC(C)=O)C(=O)N[C@@H](C(C)C)C(=O)N[C@@H](CO)C(=O)N[C@@H](CCCCN)C(=O)NCC(=O)N[C@H](C(N)=O)CS4)cc1 [5b(ii)] (Ac-CVSKGC-NH2; linker 1-6 via X1; N-terminus and C-terminus assumed)
result (Trk activity assigned) [3]: TrkB agonist

COc1ccc(C2=C3C=C(S(=O)(=O)O)C4=[N+]3[B-](F)(F)n3c2cc(S(=O)(=O)O)c3SC[C@H](NC(C)=O)C(=O)N[C@@H](CC(=O)O)C(=O)N[C@@H](CCSC)C(=O)N[C@@H](CO)C(=O)NCC(=O)N[C@H](C(N)=O)CS4)cc1 [5b(i)] (Ac-CDMSGC-NH2; linker 1-6 via X1; N-terminus and C-terminus assumed)
result (Trk activity assigned) [3]: TrkB agonist

COc1ccc(C2=C3C=C(S(=O)(=O)O)C4=[N+]3[B-](F)(F)n3c2cc(S(=O)(=O)O)c3SC[C@H](NC(C)=O)C(=O)N[C@@H](CC(=O)O)C(=O)N[C@@H](CCC(=O)O)C(=O)N[C@@H](CCCCN)C(=O)N[C@@H](CCC(N)=O)C(=O)N[C@H](C(N)=O)CS4)cc1 [5a(iii)m] (Ac-CDEKQC-NH2; linker 1-6 via X1; N-terminus and C-terminus assumed)
result (Trk activity assigned) [4]: TrkA modulator

CC[C@H](C)[C@@H]1NC(=O)[C@H](CC(=O)O)NC(=O)[C@@H](NC(C)=O)CSc2c(S(=O)(=O)O)cc3n2[B-](F)(F)[N+]2=C(SC[C@@H](C(N)=O)NC(=O)CNC(=O)[C@H](CCCNC(=N)N)NC1=O)C(S(=O)(=O)O)=CC2=C3c1ccc(OC)cc1 [5c(i)] (Ac-CDIRGC-NH2; linker 1-6 via X1; N-terminus and C-terminus assumed)
result (Trk activity assigned) [3]: TrkB/C agonist | result (Trk activity assigned) [2]: TrkB/C agonist

B1: cyclo-organopeptide 5c(i) (peptide)
peptide: CDIRGC
modifications: linker 1-6 via sulfonated dichloro‑BODIPY dye
notes: flanking Cys of the CX1X2X3X4C-peptide; also called NT-3 loop (i) mimic; source: synthetic peptide (Fmoc SPPS), cyclised onto BODIPY, preparative HPLC
Kd [5]: 97 ± 4 nM | Kd [6]: 43 ± 2 nM | EC50 of survival of HEK293-TrkB cells in serum-free media, with suboptimal neurotrophin (0.6 nM BDNF) [7]: 2200 nM | EC50 of survival of HEK293-TrkB cells in serum-free media, without NT [7]: 100 nM

CVSKGC (linker 1-6 via sulfonated dichloro‑BODIPY dye) [cyclo-organopeptide 5b(ii)]
Kd [6]: 115 ± 66 nM | EC50 of survival of HEK293-TrkB cells in serum-free media, with suboptimal neurotrophin (0.6 nM BDNF) [7]: 2800 nM | EC50 of survival of HEK293-TrkB cells in serum-free media, without NT [7]: 900 nM

B2: cyclo-organopeptide 5c(ii) (peptide)
peptide: CTQNSC
modifications: linker 1-6 via sulfonated dichloro‑BODIPY dye
notes: flanking Cys of the CX1X2X3X4C-peptide; also called NT-3 loop (ii) mimic; source: synthetic peptide (Fmoc SPPS), cyclised onto BODIPY, preparative HPLC
IC50 of the decrease of pAKT signalling (ELFI) in NIH+C cells when competed with 10 ng/mL NT; pair blocked: NT-3 and TrkC [8]: 7 μM | IC50 of the decrease of pMAPK signalling (ELFI) in NIH+C cells when competed with 10 ng/mL NT; pair blocked: NT-3 and TrkC [8]: 35 μM | IC50 of the decrease of pAKT signalling (ELFI) in PC12 cells (rat, endogenous TrkA) when competed with 10 ng/mL NT; pair blocked: NGF and TrkA [9]: 7 μM | IC50 of the decrease of pMAPK signalling (ELFI) in PC12 cells (rat, endogenous TrkA) when competed with 10 ng/mL NT; pair blocked: NGF and TrkA [9]: 7 μM | Kd [10]: 91 ± 2 nM | EC50 of survival of HeLa-TrkA cells in serum-free media, with suboptimal neurotrophin (0.2 nM NGF) [11]: 300 nM | EC50 of survival of HeLa-TrkA cells in serum-free media, without NT [11]: 4500 nM

CENNKC (linker 1-6 via sulfonated dichloro‑BODIPY dye) [cyclo-organopeptide 5c(iii)]
Kd [5]: 91 ± 4 nM | EC50 of survival of NIH3T3-TrkC cells in serum-free media, with suboptimal neurotrophin (0.2 nM NT-3) [12]: 900 nM | EC50 of survival of NIH3T3-TrkC cells in serum-free media, without NT [12]: 800 nM

CDEKQC (linker 1-6 via sulfonated dichloro‑BODIPY) [cyclo-organopeptide 5a(iii)m]
Kd [10]: 120 ± 3 nM | EC50 of survival of HeLa-TrkA cells in serum-free media, with suboptimal neurotrophin (0.2 nM NGF) [11]: 500 nM | EC50 of survival of HeLa-TrkA cells in serum-free media, without NT [11]: 2400 nM
